Measurements as given in patent US20210388087A1 (Chugai, published 2021).

Columns and labels:
[1] = target: human CD137 expressed on cells (human, UniProt Q07011 24-255); experiment: cell-based or functional assay
[2] = target: T1, biotin-labeled cynomolgus monkey CD137 fused to human IgG1 Fc fragment (cynomolgus monkey; human, UniProt Q07011 24-186, limits assumed, biotin-labeled); experiment: ELISA on streptavidin beads
T1 construct: also called cyno CD137-Fc; not shown: human IgG1 Fc fragment
T1 chain: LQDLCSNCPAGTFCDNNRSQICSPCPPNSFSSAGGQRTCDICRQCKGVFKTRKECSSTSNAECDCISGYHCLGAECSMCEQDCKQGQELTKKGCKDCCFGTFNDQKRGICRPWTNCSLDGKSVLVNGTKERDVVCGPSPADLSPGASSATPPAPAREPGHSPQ

[3] = target: T2, biotin-labeled human CD137 fused to human IgG1 Fc fragment (human, UniProt Q07011 24-186, biotin-labeled); experiment: bead ELISA, 1250 ng IgG, S/N over biotin-human Fc
T2 construct: also called human CD137-Fc; biotin-human CD137-Fc; not shown: human IgG1 Fc fragment
T2 sequence (Q07011 24-186 limits assumed): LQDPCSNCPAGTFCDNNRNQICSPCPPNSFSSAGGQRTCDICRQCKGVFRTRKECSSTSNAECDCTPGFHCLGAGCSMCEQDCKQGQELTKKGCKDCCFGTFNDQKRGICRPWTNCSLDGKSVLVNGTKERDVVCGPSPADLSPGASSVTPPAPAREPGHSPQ

[4] = target: T2, biotin-labeled human CD137 fused to …; experiment: ELISA on streptavidin beads, purified IgG
[5] = target: T3, Extracellular domain (24-186) of human CD137 (human, UniProt Q07011 24-186); experiment: complex formation, gel filtration
T3 construct: Fc cleaved off; also called hCD137; CD137 extracellular domain
T3 sequence (Q07011 24-186 limits assumed): as above
Description: Purified CD137 was mixed with GST-tag fused Endoglycosidase F1(in-house) for deglycosylation, followed by purification of CD137 using gel filtration column (HiLoad 16/600 Superdex 200 pg, GE healthcare) and Protein A column (HiTrap MabSelect SuRe 1 ml, GE Healthcare). […] The ternary complex was purified by gel filtration chromatography (Superdex200 10/300 increase, GE Healthcare) using a column equilibrated with 25 mM HEPES pH 7.3, 100 mM NaCl.

Human CD3eg linker [6] = target: T4, Human CD3eg linker (human); experiment: SPR Biacore T200, 37 C, Ab captured on anti-human Fc, antigen as analyte
T4 construct: Single chain: CD3 epsilon and gamma subunits joined by a 29-mer linker, Flag-tag at the C-terminus; also called recombinant human CD3
T4 chain: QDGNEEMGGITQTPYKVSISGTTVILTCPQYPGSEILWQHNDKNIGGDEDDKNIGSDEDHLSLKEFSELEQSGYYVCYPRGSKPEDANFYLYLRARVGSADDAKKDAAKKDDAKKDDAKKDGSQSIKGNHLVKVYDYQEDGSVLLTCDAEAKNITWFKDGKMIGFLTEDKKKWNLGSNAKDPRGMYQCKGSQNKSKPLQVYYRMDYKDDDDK
Description: (§1) Binding affinity of trispecific antibodies to human CD3 and CD137 were assessed at 37 degrees C. using Biacore T200 instrument (GE Healthcare). Anti-human Fc antibody (GE Healthcare) was immobilized onto all flow cells of a CM4 sensor chip using amine coupling kit (GE Healthcare). Antibodies were captured onto the anti-Fc sensor surfaces, then recombinant human CD3 or CD137 was injected over the flow cell. All antibodies and analytes were prepared in ACES pH 7.4 containing 20 mM ACES, 150 mM NaCl, 0.05% Tween 20, 0.005% NaN3. Sensor surface was regenerated each cycle with 3M MgCl₂.

Human CD137 ECD [7] = target: T5, Human CD137 ECD (human); experiment: as above
T5 construct: also called human CD137 extracellular domain; recombinant human CD137
T5 sequence (chain, as listed by the source limits assumed): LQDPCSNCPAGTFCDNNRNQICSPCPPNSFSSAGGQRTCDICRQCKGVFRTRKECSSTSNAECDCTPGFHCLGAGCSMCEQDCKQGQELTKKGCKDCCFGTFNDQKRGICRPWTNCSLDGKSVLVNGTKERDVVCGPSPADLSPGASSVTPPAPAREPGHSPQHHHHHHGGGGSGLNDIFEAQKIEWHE
Description: as §1

Human CD3eg linker [8] = target: T6, Human CD3eg linker (human); experiment: SPR (Biacore T200), 37 degrees C, antibody captured by anti-human Fc on CM4 chip, recombinant human CD3 as analyte, 1:1 model
T6 construct: also called recombinant human CD3
T6 chain: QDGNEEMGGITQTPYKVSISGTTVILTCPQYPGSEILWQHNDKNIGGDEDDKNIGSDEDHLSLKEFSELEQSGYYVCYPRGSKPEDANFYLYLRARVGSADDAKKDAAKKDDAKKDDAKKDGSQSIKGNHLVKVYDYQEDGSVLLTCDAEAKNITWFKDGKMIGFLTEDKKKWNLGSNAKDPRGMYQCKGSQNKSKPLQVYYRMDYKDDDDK
Description: (§2) (15-2) Evaluation of the Binding of GPC3/CD3/Human CD137 Trispecific Antibodies Binding Affinity of Trispecific Antibodies to Human CD3 and CD137 were Assessed at 37 Degrees C. Using Binding affinity of trispecific antibodies to human CD3 and CD137 were assessed at 37 degrees C. using Biacore T200 instrument (GE Healthcare). Anti-human Fc antibody (GE Healthcare) was immobilized onto all flow cells of a CM4 sensor chip using amine coupling kit (GE Healthcare). Antibodies were captured onto the anti-Fc sensor surfaces, then recombinant human CD3 or CD137 was injected over the flow cell. All antibodies and analytes were prepared in ACES pH 7.4 containing 20 mM ACES, 150 mM NaCl, 0.05% Tween 20, 0.005% NaN3. Sensor surface was regenerated each cycle with 3M MgCl2.

Human CD137 ECD [9] = target: T7, Human CD137 ECD (human); experiment: SPR (Biacore T200), 37 degrees C, antibody captured by anti-human Fc on CM4 chip, recombinant human CD137 as analyte, 1:1 model
T7 construct: also called recombinant human CD137
T7 sequence (chain, as listed by the source limits assumed): as the sequence (chain, as listed by the source limits assumed) above
Description: as §2

Human CD137 ECD [10] = target: T7, Human CD137 ECD; experiment: SPR (Biacore T200), 37 degrees C, antibody captured by anti-human Fc on CM4 chip, recombinant human CD137 as analyte, 1:1 model; 37 degrees C
Description: as §2

Chain of human CD137 expressed on cells (Q07011 24-255): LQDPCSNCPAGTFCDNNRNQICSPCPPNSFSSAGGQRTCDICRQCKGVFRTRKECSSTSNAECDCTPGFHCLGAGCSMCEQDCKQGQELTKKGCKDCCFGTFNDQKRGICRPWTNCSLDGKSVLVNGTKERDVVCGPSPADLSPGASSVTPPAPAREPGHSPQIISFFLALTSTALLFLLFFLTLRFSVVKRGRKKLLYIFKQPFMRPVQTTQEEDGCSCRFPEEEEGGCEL

B1: GPC3/CD137×CD3 trispecific antibody (other)
VH 1: QVQLQQWGAGLLKPSETLSLTCAVYGGSFSGYYWSWIRQSPEKGLEWIGEINHGGYVTYNPSLESRVTISVDTSKNQFSLKLSSVTAADTAVYYCARDYGPGNYDWYFDLWGRGTLVTVSS
VL 1: EIVLTQSPATLSLSPGERATLSCRASQSVSSYLAWYQQKPGQAPRLLIYDASNRATGIPARFSGSGSGTDFTLTISSLEPEDFAVYYCQQRSNWPPALTFGGGTKVEIK
VH 2: QVQLVESGGGLVQPGRSLRLSCAASGFTFSNAWMHWVRQAPGKGLEWVAQIKDRANSYNTYYAESVKGRFTISRDDSKNSIYLQMNSLKTEDTAVYYCRYVHYTTYAGSSFSYGVDAWGQGTTVTVSS
VL 2: DIVMTQSPLSLPVTPGEPASISCRSSQPLVHSNRNTYLHWYQQKPGQAPRLLIYKVSNRFSGVPDRFSGSGSGTDFTLKISRVEAEDVGVYYCGQGTQVPYTFGQGTKLEIK
VH 3: QVQLVQSGAEVKKPGASVTVSCKASGYTFTDYEMHWIRQPPGEGLEWIGAIDGPTPDTAYSEKFKGRVTLTADKSTSTAYMELSSLTSEDTAVYYCTRFYSYTYWGQGTLVTVSS
VL 3: DIVMTQSPLSLPVTPGEPASISCRSSQPLVHSNRNTYLHWYQQKPGQAPRLLIYKVSNRFSGVPDRFSGSGSGTDFTLKISRVEAEDVGVYYCGQGTQVPYTFGQGTKLEIK
Luminescence against CD137 positive cells relative to that against GPC3 positive cells, 1 nM [1]: ~107%
Luminescence against CD137 positive cells relative to that against GPC3 positive cells, 10 nM [1]: ~128%

B2: dBBDu126 (antibody, human IgG1, V domains shown)
VH: QVQLVESGGGLVQPGRSLRLSCAASGFTFSIAWMHWVRQAPGKGLEWVAQIKDRVNAYEAYYAPSVKGRFTISRDDSKNSIYLQMNSLKTEDTAVYYCRYVHYASYYDLLGYGGVDAWGQGTTVTVSS
VL: DIVMTQSPLSLPVTPGEPASISCRSSQSLVHSNRNTYLHWYQQKPGQAPRLLIYKVSNRFSGVPDRFSGSGSGTDFTLKISRVEAEDVGVYYCGQGTQVPYTFGQGTKLEIK
notes: human IgG1; GLS3000 light chain; also called DADU01_3 #001; DADU01_3_#001
binding result [2]: no binding (tested: 25 micro L of 50 ng/micro L purified IgG)
binding result [3]: binds

B3: dBBDu127 (antibody, human IgG1, V domains shown)
VH: QVQLVESGGGLVQPGRSLRLSCAASGFTFSNAWMHWVRQAPGKGLEWVAQIKDRGQQYNAYYAPSVKGRFTISRDDSKNSIYLQMNSLKTEDTAVYYCHYVHYASASSVLPGYGVDAWGQGTTVTVSS
VL: DIVMTQSPLSLPVTPGEPASISCRSSQSLVHSNRNTYLHWYQQKPGQAPRLLIYKVSNRFSGVPDRFSGSGSGTDFTLKISRVEAEDVGVYYCGQGTQVPYTFGQGTKLEIK
notes: human IgG1; GLS3000 light chain; also called DXDU01_3 #051; DXDU01_3_#051
binding result [4]: binds

B4: H0868L0581 Fab (Fab, V domains shown)
VH: QVQLVESGGGLVQPGRSLRLSCAASGFKFSNVWMHWVRQAPGKGLEWVAQIKDKYNAYAAYYAPSVKGRFTISRDDSKNSIYLQMNSLKTEDTAVYYCHYVHYASASTLLPAFGVDAWGQGTTVTVSS
VL: DIVMTQSPLSLPVTPGEPASISCQPSQEVVHMNRNTYLHWYQQKPGQAPRLLIYKVSNRFPGVPDRFSGSGSGTDFTLKISRVEAEDVGVYYCAQGTSHPFTFGQGTKLEIK
notes: Fab made by limited Lys-C digestion of the bivalent antibody; also called H0868L581; Fab fragment of H0868L0581
binding result [5]: binds

B5: GPC3/CD137xCD3 (bispecific antibody, V domains shown)
VH 1: QVQLQQWGAGLLKPSETLSLTCAVYGGSFSGYYWSWIRQSPEKGLEWIGEINHGGYVTYNPSLESRVTISVDTSKNQFSLKLSSVTAADTAVYYCARDYGPGNYDWYFDLWGRGTLVTVSS
VL 1: EIVLTQSPATLSLSPGERATLSCRASQSVSSYLAWYQQKPGQAPRLLIYDASNRATGIPARFSGSGSGTDFTLTISSLEPEDFAVYYCQQRSNWPPALTFGGGTKVEIK
VH 2: QVQLVESGGGLVQPGRSLRLSCAASGFTFSNAWMHWVRQAPGKGLEWVAQIKDRANSYNTYYAESVKGRFTISRDDSKNSIYLQMNSLKTEDTAVYYCRYVHYTTYAGSSFSYGVDAWGQGTTVTVSS
VL 2: DIVMTQSPLSLPVTPGEPASISCRSSQPLVHSNRNTYLHWYQQKPGQAPRLLIYKVSNRFSGVPDRFSGSGSGTDFTLKISRVEAEDVGVYYCGQGTQVPYTFGQGTKLEIK
VH 3: QVQLVQSGAEVKKPGASVTVSCKASGYTFTDYEMHWIRQPPGEGLEWIGAIDGPTPDTAYSEKFKGRVTLTADKSTSTAYMELSSLTSEDTAVYYCTRFYSYTYWGQGTLVTVSS
VL 3: DIVMTQSPLSLPVTPGEPASISCRSSQPLVHSNRNTYLHWYQQKPGQAPRLLIYKVSNRFSGVPDRFSGSGSGTDFTLKISRVEAEDVGVYYCGQGTQVPYTFGQGTKLEIK
notes: Fc gamma R silent Fc; also called GPC3/CD137 x CD3 trispecific antibody (2+1)
Kd (Human CD3eg linker [6]): 0.0197 µM
koff (Human CD3eg linker [6]): 0.00161 s⁻¹
kon (Human CD3eg linker [6]): 81800 M⁻¹ s⁻¹
Kd (Human CD137 ECD [7]): 0.0377 µM
koff (Human CD137 ECD [7]): 0.0206 s⁻¹
kon (Human CD137 ECD [7]): 547000 M⁻¹ s⁻¹

B6: GPC3/CD137 × CD3 trispecific antibody (antibody, V domains shown)
VH 1: QVQLQQWGAGLLKPSETLSLTCAVYGGSFSGYYWSWIRQSPEKGLEWIGEINHGGYVTYNPSLESRVTISVDTSKNQFSLKLSSVTAADTAVYYCARDYGPGNYDWYFDLWGRGTLVTVSS
VL 1: EIVLTQSPATLSLSPGERATLSCRASQSVSSYLAWYQQKPGQAPRLLIYDASNRATGIPARFSGSGSGTDFTLTISSLEPEDFAVYYCQQRSNWPPALTFGGGTKVEIK
VH 2: QVQLVESGGGLVQPGRSLRLSCAASGFTFSNAWMHWVRQAPGKGLEWVAQIKDRANSYNTYYAESVKGRFTISRDDSKNSIYLQMNSLKTEDTAVYYCRYVHYTTYAGSSFSYGVDAWGQGTTVTVSS
VL 2: DIVMTQSPLSLPVTPGEPASISCRSSQPLVHSNRNTYLHWYQQKPGQAPRLLIYKVSNRFSGVPDRFSGSGSGTDFTLKISRVEAEDVGVYYCGQGTQVPYTFGQGTKLEIK
VH 3: QVQLVQSGAEVKKPGASVTVSCKASGYTFTDYEMHWIRQPPGEGLEWIGAIDGPTPDTAYSEKFKGRVTLTADKSTSTAYMELSSLTSEDTAVYYCTRFYSYTYWGQGTLVTVSS
VL 3: DIVMTQSPLSLPVTPGEPASISCRSSQPLVHSNRNTYLHWYQQKPGQAPRLLIYKVSNRFSGVPDRFSGSGSGTDFTLKISRVEAEDVGVYYCGQGTQVPYTFGQGTKLEIK
notes: Trispecific mAb AB made by Fab-arm exchange from mAb A (CrossMab, two Fv per arm: Fv A1 and Fv A2) and mAb B (conventional IgG, Fv B); Fc gamma R-silent, deglycosylated Fc; also called GPC3/CD137xCD3
Kd (Human CD3eg linker [8]): 0.0197 µM
koff (Human CD3eg linker [8]): 0.00161 s⁻¹
kon (Human CD3eg linker [8]): 81800 M⁻¹ s⁻¹
Kd (Human CD137 ECD [9]): 0.0377 µM
koff (Human CD137 ECD [9]): 0.0206 s⁻¹
kon (Human CD137 ECD [10]): 547000 M⁻¹ s⁻¹
